{"source": "patent US20180086804A1", "about": "(COMMISSARIAT A L ENERGIE ATOMIQUE ET AUX ENERGIES …, published 2018)", "binders": {"B1": {"name": "CCNB1 164-178 (peptide)", "peptide": "PNLCSEYVKDIYAYL-NH2"}, "B2": {"name": "CCNB1 369-383 (peptide)", "peptide": "LSYTEESLLPVMQHL-NH2"}, "B3": {"name": "CCNB1 113-127 (peptide)", "peptide": "EKLSPEPILVDTASP-NH2"}, "B4": {"name": "CCNB1 267-281 (peptide)", "peptide": "GDFAFVTDNTYTKHQ-NH2"}, "B5": {"name": "CCNB1 299-313 (peptide)", "peptide": "RPLPLHFLRRASKIG-NH2"}, "B6": {"name": "CCNB1 118-132 (peptide)", "peptide": "EPILVDTASPSPMET-NH2"}, "B7": {"name": "CCNB1 280-294 (peptide)", "peptide": "HQIRQMEMKILRALN-NH2"}, "B8": {"name": "CCNB1 374-388 (peptide)", "peptide": "ESLLPVMQHLAKNVV-NH2"}}, "note": "No end group written: not given here.", "data": [{"target": "T1, HLA-DR15 (HLA-DRB1*15:01) (human)", "T1 construct": "mature; purified from homozygous EBV-transformed lymphoblastoid cells with antibody L243", "test": "competition ELISA vs biotin-A3 152-166", "values": [{"binder": "B1", "relative affinity": 28}, {"binder": "B2", "relative affinity": 350}]}, {"target": "T2, HLA-DR3 (HLA-DRB1*03:01) (human)", "T2 construct": "mature; purified from homozygous EBV-transformed lymphoblastoid cells with antibody L243", "test": "competition ELISA vs biotin-MT 2-16", "values": [{"binder": "B3", "relative affinity": 6}]}, {"target": "T2, HLA-DR3 (HLA-DRB1*03:01)", "test": "competition ELISA vs biotin-MT 2-16", "remark": "another data set of the same source", "values": [{"binder": "B4", "relative affinity": 0.2}]}, {"target": "T3, HLA-DR1 (HLA-DRB1*01:01) (human)", "T3 construct": "mature; class II HLA molecule purified from homozygous EBV-transformed lymphoblastoid cells with antibody L243", "test": "competition ELISA vs biotin-HA 306-318;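 further: HLA and competitor incubated 24 to 72 h, maximal signal taken from wells lacking competitor, background from wells lacking HLA molecule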", "values": [{"binder": "B3", "relative affinity": 6000}, {"binder": "B1", "relative affinity": 2830}, {"binder": "B2", "relative affinity": 212}]}, {"target": "T4, HLA-DR4 (HLA-DRB1*04:01) (human)", "T4 construct": "mature; purified from homozygous EBV-transformed lymphoblastoid cells with antibody L243", "test": "competition ELISA vs biotin-HA 306-318", "values": [{"binder": "B3", "relative affinity": 55}, {"binder": "B1", "relative affinity": 527}, {"binder": "B2", "relative affinity": 58}]}, {"target": "T5, HLA-DR11 (HLA-DRB1*11:01) (human)", "T5 construct": "mature; purified from homozygous EBV-transformed lymphoblastoid cells with antibody L243", "test": "competition ELISA vs biotin-HA 306-318", "values": [{"binder": "B2", "relative affinity": 45}]}, {"target": "T6, HLA-DRB5 (HLA-DRB5*01:01) (human)", "T6 construct": "mature; purified from homozygous EBV-transformed lymphoblastoid cells with antibody L243", "test": "competition ELISA vs biotin-HA 306-318", "values": [{"binder": "B1", "relative affinity": 500}, {"binder": "B2", "relative affinity": 1380}]}, {"target": "T7, HLA-DRB4 (HLA-DRB4*01:01) (human)", "T7 construct": "mature; purified from homozygous EBV-transformed lymphoblastoid cells with antibody L243", "test": "competition ELISA vs biotin-E2/E168", "values": [{"binder": "B3", "relative affinity": 231}, {"binder": "B1", "relative affinity": 40}]}, {"target": "T8, HLA-DR7 (HLA-DRB1*07:01) (human)", "T8 construct": "mature; purified from homozygous EBV-transformed lymphoblastoid cells with antibody L243", "test": "competition ELISA vs biotin-YKL", "values": [{"binder": "B4", "relative affinity": 22}, {"binder": "B5", "relative affinity": 35}]}, {"target": "T9, HLA-DR13 (HLA-DRB1*13:01) (human)", "T9 construct": "mature; purified from homozygous EBV-transformed lymphoblastoid cells with antibody L243", "test": "competition ELISA vs biotin-B1 21-36", "values": [{"binder": "B4", "relative affinity": 62}, {"binder": "B5", "relative affinity": 0.2}]}, {"target": "T3, HLA-DR1 (HLA-DRB1*01:01)", "test": "competition ELISA vs biotin-HA 306-318", "remark": "another data set of the same source", "values": [{"binder": "B4", "relative affinity": 1500}, {"binder": "B5", "relative affinity": 63}]}, {"target": "T4, HLA-DR4 (HLA-DRB1*04:01)", "test": "competition ELISA vs biotin-HA 306-318", "remark": "another data set of the same source", "values": [{"binder": "B4", "relative affinity": 1}, {"binder": "B5", "relative affinity": 624}]}, {"target": "T5, HLA-DR11 (HLA-DRB1*11:01)", "test": "competition ELISA vs biotin-HA 306-318", "remark": "another data set of the same source", "values": [{"binder": "B4", "relative affinity": 1330}, {"binder": "B5", "relative affinity": 0.1}]}, {"target": "T6, HLA-DRB5 (HLA-DRB5*01:01)", "test": "competition ELISA vs biotin-HA 306-318", "remark": "another data set of the same source", "values": [{"binder": "B4", "relative affinity": 24}, {"binder": "B5", "relative affinity": 26}]}, {"target": "T10, HLA-DRB3 (HLA-DRB3*01:01) (human)", "T10 construct": "mature; purified from homozygous EBV-transformed lymphoblastoid cells with antibody L243", "test": "competition ELISA vs biotin-LOL 191-210", "values": [{"binder": "B6", "relative affinity": 12}, {"binder": "B7", "relative affinity": 53}]}, {"target": "T3, HLA-DR1 (HLA-DRB1*01:01)", "test": "competition ELISA vs biotin-HA 306-318", "remark": "another data set of the same source", "values": [{"binder": "B6", "relative affinity": 6360}, {"binder": "B8", "relative affinity": 837}, {"binder": "B7", "relative affinity": 1220}]}, {"target": "T4, HLA-DR4 (HLA-DRB1*04:01)", "test": "competition ELISA vs biotin-HA 306-318", "remark": "another data set of the same source", "values": [{"binder": "B6", "relative affinity": 0.3}, {"binder": "B8", "relative affinity": 91}, {"binder": "B7", "relative affinity": 0.4}]}, {"target": "T5, HLA-DR11 (HLA-DRB1*11:01)", "test": "competition ELISA vs biotin-HA 306-318", "remark": "another data set of the same source", "values": [{"binder": "B8", "relative affinity": 0.3}, {"binder": "B7", "relative affinity": 2000}]}, {"target": "T6, HLA-DRB5 (HLA-DRB5*01:01)", "test": "competition ELISA vs biotin-HA 306-318", "remark": "another data set of the same source", "values": [{"binder": "B8", "relative affinity": 91}, {"binder": "B7", "relative affinity": 4}]}, {"target": "T9, HLA-DR13 (HLA-DRB1*13:01)", "test": "competition ELISA vs biotin-B1 21-36", "remark": "another data set of the same source", "values": [{"binder": "B8", "relative affinity": 6}]}, {"target": "T7, HLA-DRB4 (HLA-DRB4*01:01)", "test": "competition ELISA vs biotin-E2/E168", "remark": "another data set of the same source", "values": [{"binder": "B5", "relative affinity": 13}]}, {"target": "T8, HLA-DR7 (HLA-DRB1*07:01)", "test": "competition ELISA vs biotin-YKL", "remark": "another data set of the same source", "values": [{"binder": "B1", "relative affinity": 73}, {"binder": "B2", "relative affinity": 91}]}, {"target": "T8, HLA-DR7 (HLA-DRB1*07:01)", "test": "competition ELISA vs biotin-YKL", "remark": "another data set of the same source", "values": [{"binder": "B8", "relative affinity": 3}, {"binder": "B7", "relative affinity": 462}]}, {"target": "T2, HLA-DR3 (HLA-DRB1*03:01)", "test": "competition ELISA vs biotin-MT 2-16", "remark": "another data set of the same source", "values": [{"binder": "B6", "relative affinity": 0.4}, {"binder": "B8", "relative affinity": 764}, {"binder": "B7", "relative affinity": 0.2}]}, {"target": "T11, HLA-DP402 (HLA-DPB1*04:02) (human, UniProt P20036 29-222)", "T11 construct": "mature; purified from homozygous EBV-transformed lymphoblastoid cells with antibody B7/21", "test": "competition ELISA vs biotin-Oxy 271-287", "values": [{"binder": "B3", "relative affinity": 71}, {"binder": "B1", "relative affinity": 625}, {"binder": "B2", "relative affinity": 1}]}, {"target": "T12, HLA-DP401 (HLA-DPB1*04:01) (human, UniProt P20036 29-222)", "T12 construct": "mature; purified from homozygous EBV-transformed lymphoblastoid cells with antibody B7/21", "test": "competition ELISA vs biotin-Oxy 271-287", "values": [{"binder": "B3", "relative affinity": 72}, {"binder": "B1", "relative affinity": 274}, {"binder": "B2", "relative affinity": 4}]}, {"target": "T1, HLA-DR15 (HLA-DRB1*15:01)", "test": "competition ELISA vs biotin-A3 152-166", "remark": "another data set of the same source", "values": [{"binder": "B6", "relative affinity": 400}, {"binder": "B8", "relative affinity": 19}, {"binder": "B7", "relative affinity": 0.3}]}, {"target": "T1, HLA-DR15 (HLA-DRB1*15:01)", "test": "competition ELISA vs biotin-A3 152-166", "remark": "another data set of the same source", "values": [{"binder": "B4", "relative affinity": 86}, {"binder": "B5", "relative affinity": 200}]}, {"target": "T10, HLA-DRB3 (HLA-DRB3*01:01)", "test": "competition ELISA vs biotin-LOL 191-210", "remark": "another data set of the same source", "values": [{"binder": "B4", "relative affinity": 38}]}, {"target": "T7, HLA-DRB4 (HLA-DRB4*01:01)", "test": "competition ELISA vs biotin-E2/E168", "remark": "another data set of the same source", "values": [{"binder": "B8", "relative affinity": 424}]}, {"target": "T10, HLA-DRB3 (HLA-DRB3*01:01)", "test": "competition ELISA vs biotin-LOL 191-210", "remark": "another data set of the same source", "values": [{"binder": "B3", "relative affinity": 151}, {"binder": "B1", "relative affinity": 53}, {"binder": "B2", "relative affinity": 72}]}]}
